The values that follow come from the supplement of paper PMC9112550, “Optimization of the antimicrobial peptide Bac7 by deep mutational scanning” (BMC Biology, 2022).

In the data set the test system is Escherichia coli TOP10. As to the kind of experiment: shrunken log2 fold change of peptide-encoding DNA abundance (4.5 h post-induction vs induction); higher = less antimicrobial activity (less host growth inhibition). As to conditions: time post-induction: 4.5 h; library: site-saturation at positions 5, 18, 19, 20.
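Also: peptides expressed intracellularly from a pBAD plasmid library in pooled LB shake-flask culture, induced with 0.3% L-arabinose, DNA abundance read by NGS, three biological replicates, DESeq2 with apeglm shrinkage.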

In the case of RRIRERPPRLPRPRPRPENFPRP, the “shrunken log2 fold change” value was -0.195.
Turning to RRIRGRPPRLPRPRPRPDERPRP, the “shrunken log2 fold change” value is 0.104.
For RRIRHRPPRLPRPRPRPDATPRP the value was 0.286; for RRIRSRPPRLPRPRPRPVERPRP, 0.187.
For RRIRPRPPRLPRPRPRPWFLPRP the value was -0.458; for RRIRQRPPRLPRPRPRPRWSPRP, 0.231.
Consider RRIRQRPPRLPRPRPRPLVDPRP, for which the “shrunken log2 fold change” value stood at 0.187.
As for RRIRTRPPRLPRPRPRPENFPRP, the “shrunken log2 fold change” value is -0.0131.
For RRIRARPPRLPRPRPRPCRLPRP the value was -0.0461; for RRIRFRPPRLPRPRPRPWESPRP, -0.037.
For RRIRRRPPRLPRPRPRPYLEPRP the value was -0.298.
In the case of RRIRPRPPRLPRPRPRPHRMPRP it was -0.465.
With RRIRFRPPRLPRPRPRPGYRPRP, the “shrunken log2 fold change” value is -0.0212.
For RRIRSRPPRLPRPRPRPPNFPRP the value was 0.291; for RRIRMRPPRLPRPRPRPQFYPRP, -0.263.
For RRIRARPPRLPRPRPRPEGDPRP the value was 1.39; for RRIRSRPPRLPRPRPRPCQMPRP, 0.0312.
For RRIRRRPPRLPRPRPRPYIDPRP, the “shrunken log2 fold change” value is -0.339.
As for RRIRSRPPRLPRPRPRPKHDPRP, the “shrunken log2 fold change” value was -0.0942.
In the case of RRIRGRPPRLPRPRPRPGCQPRP it was 1.17; in that of RRIRMRPPRLPRPRPRPGVAPRP, 1.02; in that of RRIRPRPPRLPRPRPRPVILPRP, -0.26.
For RRIRIRPPRLPRPRPRPEYAPRP the value was -0.0426; for RRIRKRPPRLPRPRPRPNVGPRP, -0.0151; for RRIRRRPPRLPRPRPRPMCRPRP, 0.37.
Consider RRIRRRPPRLPRPRPRPEQSPRP, for which the “shrunken log2 fold change” value was 0.353.
For RRIRYRPPRLPRPRPRPMCRPRP the value was -0.181.
As for RRIRNRPPRLPRPRPRPHEPPRP, the “shrunken log2 fold change” value was 0.247.
Consider RRIRFRPPRLPRPRPRPIKLPRP, for which the “shrunken log2 fold change” value is -0.825.
For RRIRARPPRLPRPRPRPSEKPRP the value was -0.312; for RRIRWRPPRLPRPRPRPGEPPRP, 0.271; for RRIRDRPPRLPRPRPRPDYHPRP, -0.0139.
For RRIRARPPRLPRPRPRPHDPPRP the value was 0.402.
In the case of RRIRVRPPRLPRPRPRPWLSPRP it was -0.0434; in that of RRIRWRPPRLPRPRPRPYVRPRP, -0.0178; in that of RRIRYRPPRLPRPRPRPWGSPRP, -0.482.
On to RRIRYRPPRLPRPRPRPERGPRP, for which the “shrunken log2 fold change” value is -0.0437.
For RRIRPRPPRLPRPRPRPQPNPRP the value was 0.185; for RRIRHRPPRLPRPRPRPHPWPRP, -0.0988; for RRIRPRPPRLPRPRPRPFDAPRP, 0.0141.
Take RRIRMRPPRLPRPRPRPLWPPRP: the “shrunken log2 fold change” value was 0.616.
For RRIRTRPPRLPRPRPRPHSKPRP the value was -0.2.
For the sequence RRIRIRPPRLPRPRPRPRAIPRP, the “shrunken log2 fold change” value is -0.356.
In the case of RRIRARPPRLPRPRPRPSLRPRP it was 0.109; in that of RRIRLRPPRLPRPRPRPGSAPRP, 0.273; in that of RRIRLRPPRLPRPRPRPDNHPRP, -0.519.
Regarding RRIRWRPPRLPRPRPRPRSYPRP, the “shrunken log2 fold change” value is -0.0435.
On to RRIRPRPPRLPRPRPRPWMGPRP, for which the “shrunken log2 fold change” value is -0.114.
For RRIRTRPPRLPRPRPRPMTVPRP, the “shrunken log2 fold change” value was -0.294.
For RRIRCRPPRLPRPRPRPLLAPRP the value was 0.229; for RRIRARPPRLPRPRPRPWMEPRP, -0.0866.
Take RRIRFRPPRLPRPRPRPMLGPRP: the “shrunken log2 fold change” value was -0.055.
For RRIRDRPPRLPRPRPRPQKRPRP the value was -0.00561; for RRIRRRPPRLPRPRPRPDEFPRP, 0.138; for RRIRGRPPRLPRPRPRPCEAPRP, 0.838.
In the case of RRIRIRPPRLPRPRPRPAEFPRP it was -0.0793.
In the case of RRIRMRPPRLPRPRPRPGNQPRP it was -0.0232.
Consider RRIRTRPPRLPRPRPRPFCCPRP, for which the “shrunken log2 fold change” value was -0.309.
For RRIRWRPPRLPRPRPRPMIQPRP, the “shrunken log2 fold change” value was -0.000914.
In the case of RRIRCRPPRLPRPRPRPLTLPRP it was -0.582.
In the case of RRIRTRPPRLPRPRPRPERVPRP it was 0.296; in that of RRIRYRPPRLPRPRPRPAGEPRP, -0.148; in that of RRIRIRPPRLPRPRPRPPFAPRP, 0.143.
For the sequence RRIRMRPPRLPRPRPRPKYEPRP, the “shrunken log2 fold change” value came to 0.741.
For RRIRYRPPRLPRPRPRPPSPPRP the value was 0.398; for RRIRMRPPRLPRPRPRPRPEPRP, 1.35.
For RRIRRRPPRLPRPRPRPCTDPRP the value was -0.115; for RRIRKRPPRLPRPRPRPHTEPRP, 0.0507.
Take RRIRKRPPRLPRPRPRPSVMPRP: the “shrunken log2 fold change” value stood at 0.163.
Consider RRIRHRPPRLPRPRPRPWRMPRP, for which the “shrunken log2 fold change” value is 0.0309.
In the case of RRIRARPPRLPRPRPRPCTNPRP it was 0.109; in that of RRIRMRPPRLPRPRPRPNDRPRP, 0.141.
For RRIRFRPPRLPRPRPRPEFFPRP the value was -0.153.
Consider RRIRSRPPRLPRPRPRPHMNPRP, for which the “shrunken log2 fold change” value was -0.548.
Take RRIRVRPPRLPRPRPRPYDSPRP: the “shrunken log2 fold change” value is -0.126.
As for RRIRTRPPRLPRPRPRPCGGPRP, the “shrunken log2 fold change” value was found to be 0.169.
With RRIRPRPPRLPRPRPRPNRPPRP, the “shrunken log2 fold change” value was determined as 0.274.
In the case of RRIRHRPPRLPRPRPRPYLIPRP, the “shrunken log2 fold change” value is -0.574.
RRIRNRPPRLPRPRPRPVMRPRP: the “shrunken log2 fold change” value was found to be 0.526.
Take RRIRMRPPRLPRPRPRPQCAPRP: the “shrunken log2 fold change” value was 0.645.
On to RRIRVRPPRLPRPRPRPFHKPRP, for which the “shrunken log2 fold change” value is -0.385.
In the case of RRIRTRPPRLPRPRPRPPYAPRP it was -0.17; in that of RRIRRRPPRLPRPRPRPPWTPRP, 0.443; in that of RRIRQRPPRLPRPRPRPCNDPRP, -0.374.
In the case of RRIRFRPPRLPRPRPRPANLPRP it was -0.296.
For RRIRLRPPRLPRPRPRPALAPRP the value was 0.305.
As for RRIRFRPPRLPRPRPRPCMTPRP, the “shrunken log2 fold change” value worked out at 0.162.
In the case of RRIRVRPPRLPRPRPRPEFGPRP it was 0.177; in that of RRIRTRPPRLPRPRPRPHEGPRP, -0.00663; in that of RRIRIRPPRLPRPRPRPSKQPRP, -0.18.
For RRIRLRPPRLPRPRPRPSNEPRP the value was -0.299.
RRIRERPPRLPRPRPRPELDPRP: the “shrunken log2 fold change” value was 0.0389.
As to RRIRPRPPRLPRPRPRPSDCPRP, the “shrunken log2 fold change” value was -0.0743.
In the case of RRIRERPPRLPRPRPRPWNCPRP, the “shrunken log2 fold change” value was -0.327.
Consider RRIRVRPPRLPRPRPRPHQRPRP, for which the “shrunken log2 fold change” value is -0.124.
For RRIRRRPPRLPRPRPRPALQPRP the value was 1.92.
For RRIRHRPPRLPRPRPRPRICPRP the value was 0.0205.
In the case of RRIRHRPPRLPRPRPRPRTNPRP it was 0.0589.
For RRIRARPPRLPRPRPRPIQFPRP, the “shrunken log2 fold change” value came to 0.166.
For RRIRDRPPRLPRPRPRPSPWPRP the value was 0.188; for RRIRTRPPRLPRPRPRPYRGPRP, -0.519; for RRIRDRPPRLPRPRPRPEWVPRP, -0.0272.
On to RRIRIRPPRLPRPRPRPQGAPRP, for which the “shrunken log2 fold change” value is 0.0368.
As to RRIRMRPPRLPRPRPRPQPEPRP, the “shrunken log2 fold change” value came to 0.582.
In the case of RRIRPRPPRLPRPRPRPNQRPRP it was 0.0736; in that of RRIRHRPPRLPRPRPRPGQPPRP, 0.0384.
As to RRIRGRPPRLPRPRPRPQRGPRP, the “shrunken log2 fold change” value was determined as 0.119.
Take RRIRSRPPRLPRPRPRPCPCPRP: the “shrunken log2 fold change” value is -0.138.
In the case of RRIRFRPPRLPRPRPRPHLGPRP it was 0.0424; in that of RRIRWRPPRLPRPRPRPVWDPRP, 0.177.
For the sequence RRIRSRPPRLPRPRPRPSTYPRP, the “shrunken log2 fold change” value is -0.405.
On to RRIRIRPPRLPRPRPRPAYPPRP, for which the “shrunken log2 fold change” value is -0.829.
Regarding RRIRTRPPRLPRPRPRPVTFPRP, the “shrunken log2 fold change” value is -0.0266.
For RRIRKRPPRLPRPRPRPVMFPRP the value was 0.124; for RRIRARPPRLPRPRPRPFITPRP, -0.543; for RRIRYRPPRLPRPRPRPTMCPRP, -0.159.
Consider RRIRVRPPRLPRPRPRPPIKPRP, for which the “shrunken log2 fold change” value was -0.151.
RRIRERPPRLPRPRPRPQELPRP: the “shrunken log2 fold change” value is -0.755.
For RRIRNRPPRLPRPRPRPFEKPRP the value was -0.0819; for RRIRCRPPRLPRPRPRPCSEPRP, -0.495.
For RRIRHRPPRLPRPRPRPRMAPRP the value was 0.0651.
For the sequence RRIRYRPPRLPRPRPRPCTFPRP, the “shrunken log2 fold change” value was -0.208.
In the case of RRIRWRPPRLPRPRPRPNCPPRP it was -0.125; in that of RRIRRRPPRLPRPRPRPMTHPRP, -0.17; in that of RRIRFRPPRLPRPRPRPKELPRP, -0.127.
